The values that follow come from paper PMC5651819, “AtSPX1 affects the AtPHR1–DNA-binding equilibrium by binding monomeric AtPHR1 in solution”.

By Kd is commonly meant the free concentration of one partner at which half of the binding sites on the other are occupied at equilibrium, for simple one-to-one binding.

Data set [1] deals with MBP-AtdPHR1 (Arabidopsis thaliana, UniProt Q94CL7 208-362). Kind of data set: SPR; 1:1 fit at 2.5 nM protein, n = 3; ka 3.5e4 M-1 s-1, kd 0.00049 s-1; SPR (Biacore 3000, SA chip, ~500 RU DNA): 10 mM HEPES pH 7.5, 200 mM NaCl, 0.01% Surfactant P-20, 25 C, 40 ul/min, with or without Pi/InsP6. Particulars: protein: recombinant; tags: N-terminal MBP (pMAL-c2x); chain copies: 2; label: 5'-biotin on strand 1; blunt. For orientation: SPR reads the build-up and loss of mass on a sensor chip optically.

In data set [2] the target is T1, GST-AtSPX1 (Arabidopsis thaliana, UniProt Q8LBH4 1-256).
T1 sequence: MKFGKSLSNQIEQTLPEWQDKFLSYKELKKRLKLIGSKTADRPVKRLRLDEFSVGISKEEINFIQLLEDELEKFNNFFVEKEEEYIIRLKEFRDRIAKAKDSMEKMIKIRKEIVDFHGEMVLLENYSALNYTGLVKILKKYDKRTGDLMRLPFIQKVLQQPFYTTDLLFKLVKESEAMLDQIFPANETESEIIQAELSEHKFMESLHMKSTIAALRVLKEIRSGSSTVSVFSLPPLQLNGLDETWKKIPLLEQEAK
Kind of data set: SPR; ~1000 nM GST-AtSPX1 after buffer, with or without 5 mM Pi; low near-baseline signal taken as non-specific; SPR (Biacore 3000, SA chip, ~500 RU DNA): 10 mM HEPES pH 7.5, 200 mM NaCl, 0.01% Surfactant P-20, 25 C, 40 ul/min, with or without Pi/InsP6. Particulars: protein: recombinant; tags: N-terminal GST (pGEX-2T); label: 5'-biotin on strand 1; blunt.

Chain of MBP-AtdPHR1 (Q94CL7 208-362): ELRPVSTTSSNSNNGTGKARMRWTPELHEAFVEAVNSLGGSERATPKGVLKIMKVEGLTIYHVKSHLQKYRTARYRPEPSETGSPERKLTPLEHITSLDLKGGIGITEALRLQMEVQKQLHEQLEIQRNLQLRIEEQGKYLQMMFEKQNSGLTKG

B1: 2x P1BS probe (dsDNA)
DNA 1: CAGAGAAAAAAGGATATTCTAATTAGAAACCTTAAGAATATTCTTTTTAATCCC
DNA 2: GGGATTAAAAAGAATATTCTTAAGGTTTCTAATTAGAATATCCTTTTTTCTCTG
For B1, the Kd in data set [1] was 14 ± 2.4 nM. Also, the binding result in data set [2] is given as “no binding”.
